Earlier results as cited in article PMC5457079.

Target: insulin (Homo sapiens) (UniProt P01308)

## insulin (from UniProt P01308)
  Kd: 10 µM
